In test [1] the target is T1, Human PD-L1/CD274 with C-Fc Tag (hPD-L1-Fc) (human, UniProt Q9NZQ7 19-238).
T1 construct: range 19-238; ACRO Biosystem PD1-H5258, made in HEK293; also called human PD-L1-Fc; not shown: Fc fragment of human IgG1 at C-terminus
In words: blocking ELISA on coated hPD-L1-Fc; blocked ligand: biotinylated hPD-1-N297A. As for the experimental part:
High-binding clear polystyrene 96 well plates (Nunc) were coated with 100 μl/well of coating solution consisting of 1 μg/ml hPD-L1-Fc overnight at 4° C. Then the plates were washed once on an automatic plate washer using washing buffer (PBS+0.1% Tween 20 (Sigma)). 200 μl of blocking buffer (PBS+1% BSA+1% normal goat serum+0.05% Tween-20) was added to each well and incubated 2 hours at room temp. […] The plates were then washed 3 times using the method described above. […] After the plates were washed 3 times, 100 μl/well of a solution of 1:5000 diluted HRP conjugated Neutravidin antibody (Pierce) in dilution buffer was then added to each well of the plate. After that the ELISA plates were allowed to incubate for 60 min at RT, then the plates were washed 3 times with 250 μl/well washing buffer. Finally, 100 μl/well of TMB was added to each well and the reaction was terminated using 0.64M H₂SO₄. The plates were read on a Thermo Multiscan FC at 450 nM (see FIG. 18A to 18D).
Background: An ELISA detects its analyte on a solid surface through an enzyme-linked reagent.

For test [2], the target named is hPD-L1 (antigen of the Biacore assay) (human, UniProt Q9NZQ7 19-238, limits assumed). As to the kind of experiment: SPR (Biacore), antibody captured on anti-human Fc, antigen in flow. As for the experimental part:
A CM5 sensor chip was activated in each flow cell by 7-min injection (10 μl/min) of freshly prepared 1:1 50 mM N-hydroxysuccinimide (NHS): 200 mM 1-ethyl-3-(3-dimethylaminopropyl)-carbodiimide (EDC). Then anti-human Fc antibody (GE Healthcare) in a concentration of 10 μg/ml in 10 mM sodium acetate buffer PH 5.0 was injected onto the activated chip at 10 μl/min (HBS-EP running buffer: 10 mM HEPES, 150 mM NaCl, 3.4 mM EDTA, 0.005% surfactant P20, pH 7.4). The remaining active coupling sites were blocked by 7 min injection of 1M ethanolamine at 10 μl/min. The immobilization level of each flow cell is ˜9000RU. Antibodies were captured in FC2 by anti-human Fe IgG (GE Healthcare) to 200˜300RU. FC1 was used as the reference cell. Antigen was injected at varying concentrations after capture of antibody. The association time for antibody binding antigen is 180s. Surface Regeneration condition is 120s at 10 μl/min in Gly pH1.5. The signals with captured antibody subtracted from those without captured antibody were calculated with Biacore X100 evaluation software ver. 2.0 (Biacore).
On the technique in general: SPR reads the build-up and loss of mass on a sensor chip optically.

The target of test [3] is T2, Recombinant Human PD-L1/CD274 Protein (hPD-L1-his) (human, UniProt Q9NZQ7 19-238).
T2 construct: range 19-238; ACRO Biosystem PD1-H5229, made in HEK293; also called human PD-L1-his; hPD-L-his
In words: ELISA on coated hPD-L1-his.

Another test deals with T3, hPD-L2-Fc (human, UniProt Q9BQ51 20-219).
T3 construct: Acrobiosystems PD2-H5251; also called human PD-L2 protein; not shown: Fc tag
T3 sequence (looked up): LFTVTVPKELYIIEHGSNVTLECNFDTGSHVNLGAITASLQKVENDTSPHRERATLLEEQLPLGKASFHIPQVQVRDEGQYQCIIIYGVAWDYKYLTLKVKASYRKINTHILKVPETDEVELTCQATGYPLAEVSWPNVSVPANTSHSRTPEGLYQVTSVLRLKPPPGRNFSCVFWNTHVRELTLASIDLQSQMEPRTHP
As to the kind of experiment: ELISA, plate coated with hPD-L2-Fc. As for the experimental part:
Briefly, high-binding clear polystyrene 96 well plates (Nunc) were coated with 100 μl/well of a 0.5 μg/ml human PD-L1-Fc (Acrobiosystems, Cat #PD1-H5258) or 100 μl/well of a 1 μg/ml hPD-L2-Fc (Acrobiosystems, Cat #PD2-H5251), respectively, in high pH coating buffer (0.16% Na2CO3+0.3% NaHCO₃, pH 9.8) and incubated overnight at 4° C. Then the plates were washed once on an automatic plate washer using washing buffer (PBS+0.1% Tween 20 (Amresco)). 200 μl of blocking buffer (PBS+1% BSA+1% normal goat serum+0.05% Tween-20) was added to each well and incubated for 2 hours at room temp. Then add 100 μl 2 μg/ml purified PD-L1 antibodies with dilution buffer (PBS+1% BSA+1% normal goat serum+0.01% Tween-20) and incubate for 1 hour at RT. The plates were then washed 3 times with washing buffer. 100 μl/well of a solution of HRP conjugated goat anti-mouse IgG antibody (1:20000, Abcam) in dilution buffer was then added to each well of the plate. After that the ELISA plates were allowed to incubate for 60 min at RT then the plates were washed 3 times with 250 μl/well washing buffer. Finally, 100 μl/well of TMB was added to each well for 15 min and the reaction was terminated using 50 ul/well of 0.16 M/L sulfuric acid. The plates were read on a Thermo Multiscan FC at 450 nM (see FIG. 6G).

For test [4], the target named is T4, Recombinant Mouse PD-L1/CD274 Protein (mPD-L1-his) (mouse, UniProt Q9EP73 19-238).
T4 construct: range 19-238; ACRO Biosystem PD1-M5220; also called mouse PD-L1-his
As to the kind of experiment: ELISA, 20 ug/ml antibody on coated mouse PD-L1 (his-tagged per text, mPD-L1-Fc per sheet title). As for the experimental part: High-binding clear polystyrene 96 well plates (Nunc) were coated with 100 μl/well of 1 μg/ml mouse PD-L1-his in high pH coating buffer and incubated overnight at 4° C. Then plates were washed once on an automatic plate washer using washing buffer (PBS+0.1% Tween 20 (Sigma)). 200 μl of blocking buffer (PBS+1% BSA+1% normal goat serum+0.05% Tween-20) was added to each well and incubated for 2 hours at room temp. Then add 20 μg/ml purified hybridoma mouse antibodies in dilution buffer (PBS+1% BSA+1% normal goat serum+0.01% Tween-20) and incubate for 1 hour at RT. The plates were then washed 3 times with 250 μl/well washing buffer. 100 μl/well of a solution of HRP conjugated goat anti-mouse Fc antibody (Abcam) in dilution buffer was then added to each well of the plate. After that the ELISA plates were allowed to incubate for 60 min at RT then plates were washed 3 times with 250 μl/well washing buffer. Finally, 100 μl/well of TMB was added to each well and the reaction was terminated using 0.64M H₂SO₄. The plates were read on a Thermo Multiscan FC at 450 nM (see FIG. 6F).

The target of test [5] is T2, Recombinant Human PD-L1/CD274 Protein …. In words: ELISA on coated hPD-L1-his. This is another data set of the same source.
Test [6] concerns the target T5, human PD-L1-Fc mutant E58A (human).
T5 construct: Position 58 counts on native human PD-L1 (NP_054862.1); also called E58A mutant
In words: ELISA on captured PD-L1-Fc, as in Example 18A.

Test [7] addresses T6, wild type human PD-L1-Fc protein (SEQ ID NO: 107) (human).
T6 construct: Extracellular human PD-L1 (amino acid 19-238) with Fc fragment of human IgG1, expressed in 293T cells and used as culture supernatant; also called WT PD-L1; wild-type PD-L1
As to the kind of experiment: ELISA on captured PD-L1-Fc, as in Example 18A.

Numbering of substitutions follows the chain as printed. Where two headings read alike, the source gives them in different places.

T5 sequence (chain, as listed by the source E58A E58A limits assumed): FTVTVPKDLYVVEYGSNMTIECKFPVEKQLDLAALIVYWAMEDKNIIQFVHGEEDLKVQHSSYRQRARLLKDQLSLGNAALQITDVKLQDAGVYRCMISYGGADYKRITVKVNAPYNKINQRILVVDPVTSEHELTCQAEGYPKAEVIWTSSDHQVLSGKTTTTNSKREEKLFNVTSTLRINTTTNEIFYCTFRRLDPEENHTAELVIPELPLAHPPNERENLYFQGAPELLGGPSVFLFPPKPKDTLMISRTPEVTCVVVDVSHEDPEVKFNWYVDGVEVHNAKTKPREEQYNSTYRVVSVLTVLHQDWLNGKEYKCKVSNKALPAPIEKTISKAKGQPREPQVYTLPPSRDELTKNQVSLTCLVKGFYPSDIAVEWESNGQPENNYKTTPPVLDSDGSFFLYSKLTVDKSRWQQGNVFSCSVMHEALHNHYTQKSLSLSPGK
T6 sequence (chain, as listed by the source limits assumed): as the sequence (chain, as listed by the source E58A E58A limits assumed) above, with A40E counted along it
T1 sequence (Q9NZQ7 19-238 limits assumed): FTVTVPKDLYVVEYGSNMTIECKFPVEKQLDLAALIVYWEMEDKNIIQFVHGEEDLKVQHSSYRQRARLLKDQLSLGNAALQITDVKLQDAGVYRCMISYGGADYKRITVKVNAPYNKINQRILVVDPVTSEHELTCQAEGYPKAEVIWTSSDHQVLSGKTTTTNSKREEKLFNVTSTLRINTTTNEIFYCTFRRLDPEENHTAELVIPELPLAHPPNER
hPD-L1 (antigen of the Biacore assay), sequence (Q9NZQ7 19-238 limits assumed): as above
T2 sequence (Q9NZQ7 other isoform, or with tags, fused parts or gaps limits assumed): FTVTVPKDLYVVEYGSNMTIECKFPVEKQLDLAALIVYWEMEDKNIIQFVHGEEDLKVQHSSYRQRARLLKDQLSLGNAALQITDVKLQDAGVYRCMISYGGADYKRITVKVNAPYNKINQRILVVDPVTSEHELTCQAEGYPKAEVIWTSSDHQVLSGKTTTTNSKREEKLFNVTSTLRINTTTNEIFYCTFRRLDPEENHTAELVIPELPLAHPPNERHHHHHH
T4 sequence (Q9EP73 other isoform, or with tags, fused parts or gaps limits assumed): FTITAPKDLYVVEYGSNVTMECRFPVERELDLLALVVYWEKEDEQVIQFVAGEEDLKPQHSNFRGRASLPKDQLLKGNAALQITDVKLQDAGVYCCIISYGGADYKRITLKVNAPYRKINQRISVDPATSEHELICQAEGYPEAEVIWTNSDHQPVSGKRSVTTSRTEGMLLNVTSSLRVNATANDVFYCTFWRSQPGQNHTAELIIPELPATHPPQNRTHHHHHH

B1: 4B6-H4L3 (antibody, V domains shown)
VH: QVQLVQSGAEVKKPGASVKVSCKASGYVFTDYYMNWVRQAPGQGLEWIGDINPNNGGTSYNQKFQGRVTVTVDTSIRTAYMELSRLRSDDTAVYYCVKWGDGPFAYWGQGTLVTVSS
VL: DIQMTQSQSSLSASVGDRVTITCQASQNVGAAVAWYQQKPGKAPKLLIYSASNRYTGVPSRFSGSGSGTDFTLTISSMQPEDIATYFCQQYSNYPTFGSGTKLGIK
notes: Humanized; also called humanized 4B6 H4L3
A word on the Kd: it is the concentration at which binding is half-saturated. For orientation: koff means a measure of how fast the partners let go of each other. A lower koff goes with slow dissociation. By kon is commonly meant a measure of how fast the partners come together. The low end stands for slow association, the high end for fast association. As to B1, in test [1], the “IC50 (read off the curve)” value is roughly 0.03 mg/L. In test [2], this molecule gave a Kd of 0.0113 µM, a koff of 0.00148 s⁻¹ and a kon of 132000 M⁻¹ s⁻¹.

B2: 4B6-H4L4 (antibody, V domains shown)
VH: B1 VH
VL: B1 VL with Q8P, R54L, M78L
notes: produced in 293 cells; light chain constant region not described; also called humanized 4B6 H4L4
For the molecule B2, the “IC50 (read off the curve)” value in test [1] was roughly 0.04 mg/L.

B3: 23F11-H4L6 (antibody, V domains shown)
VH: QVQLVQSGAEVKKPGASVKLSCKASGYIFTTYWMHWVKQRPGQGLEWIGMIQPNSGGTKYNEKFKKKATLTVDKSISTAYMELSRLTSDDTAVYYCARGAGTVDYFDYWGQGSTLTVSS
VL: DIVLTQSPASLAVSVGQRATITCRASESVDIYGNSFMHWYQQKPGQPPKLLIYRASNLESGIPARFSGSGSRTDFTLTINPVEANDTATYYCHQSTEDPYTFGGGTKLEIK
notes: produced in 293 cells; light chain constant region not described; also called humanized 23F11 H4L6
In general, EC50 (read off the curve) refers to the midpoint of the concentration-response curve. For the molecule B3, in test [3], the “EC50 (read off the curve)” value was roughly 0.002 mg/L. Also, the “IC50 (read off the curve)” value in test [1] was roughly 0.04 mg/L.

B4: 23A11 (antibody, V domains shown)
VH: LVQLQQPGAELVKPGASVKLSCKASGYIFTTYWIHWVKQRPGQGLEWIGMIQPNSGGTKYNDQFKNRATLTVDKSSTTASMQLSGLTSEDSAVYYCARGAGTVDYFDYWGQGTTLSISS
VL: B3 VL with A12T, V15L, T22S, P47S, N85D, T87V, T96N, E97D, I110T
notes: also called mouse monoclonal antibody 23A11; clone 23A11
Turning to B4, the binding result is recorded as “no binding (tested: 2 ug/ml)” with hPD-L2-Fc and “no binding (tested: 20 ug/ml)” in test [4].

B5: 23A11-H3L3 (antibody, V domains shown)
VH: B3 VH with Q1L, M34I, E62D, K63Q, K66N, K67R, S113T, T116S, V117I
VL: B3 VL with P47S, T96N, E97D, I110T
notes: Humanized; also called humanized 23A11 H3L3
As for B5, the “IC50 (read off the curve)” value in test [1] is roughly 0.07 mg/L. Further, the “EC50 (read off the curve)” value in test [5] is roughly 0.002 mg/L. In test [2], the Kd worked out at 0.0741 µM, the koff amounted to 0.0542 s⁻¹ and the kon was 732000 M⁻¹ s⁻¹.

B6: 23F11-H6L6 (antibody, V domains shown)
VH: B3 VH with L20V, K38R, R40A, K74T, T87R
VL: B3 VL
notes: produced in 293 cells; light chain constant region not described; also called humanized 23F11 H6L6
Regarding B6, in test [3], the “EC50 (read off the curve)” value was roughly 0.004 mg/L. Besides, in test [1], the “IC50 (read off the curve)” value was roughly 0.05 mg/L.

B7: 23A11-H5L3 (antibody, V domains shown)
VH: LVQLVQSGAEVKKPGASVKVSCKASGYIFTTYWIHWVRQAPGQGLEWIGMIQPNSGGTKYNDQFKNRVTLTVDTSISTAYMELSRLRSDDTAVYYCARGAGTVDYFDYWGQGTTLSISS
VL: B3 VL with P47S, T96N, E97D, I110T
notes: produced in 293 cells; also called humanized 23A11 H5L3
On to B7, for which the “IC50 (read off the curve)” value in test [1] was roughly 0.05 mg/L. Moreover, the concentration giving a half-maximal response (EC50 (read off the curve)) in test [5] is roughly 0.002 mg/L.

B8: 23A11-H5L5 (antibody, V domains shown)
VH: B7 VH
VL: B3 VL with P47A, H93Q, T96N, E97D, I110T
notes: produced in 293 cells; also called humanized 23A11 H5L5
On to B8, for which the “IC50 (read off the curve)” value in test [1] was roughly 0.1 mg/L. The “EC50 (read off the curve)” value in test [5] is roughly 0.002 mg/L.

B9: 23F11-H6L4 (antibody, V domains shown)
VH: B3 VH with L20V, K38R, R40A, K74T, T87R
VL: B3 VL with H93Q
notes: Humanized; also called humanized 23F11 H6L4
Regarding B9, in test [3], the “EC50 (read off the curve)” value is roughly 0.002 mg/L. The “IC50 (read off the curve)” value in test [1] is roughly 0.04 mg/L. In test [2], this molecule registered a Kd of 0.103 µM, a koff of 0.0448 s⁻¹ and a kon of 435000 M⁻¹ s⁻¹.

B10: 18G4 (antibody, V domains shown)
VH: QVQLQQPGTALVKPGASVKLSCKASGYTFSSYYIHWVKQRPGQGLEWIGNINPFNGGSIYNEKFKNKASLTVDTSSNTAYMQLSSLTSEDSAVYYCARWHFDYWGQGTSLTVSS
VL: DIVMTQSPSSLAVTAGEKVTLKCKSSQSLLWSGNQNNYLSWYQQKQGQPPKLLIYGASIRESWVPDRFTGSGSGTDFTLTIGNVSAEDLAVYYCQHNHGSFLPYTFGGGTRLEIK
notes: Mouse monoclonal from hybridoma; also called mouse monoclonal antibody 18G4
Regarding B10, in test [6], the “% of binding of Ab to E58A mutant vs. that to WT PD-L1” value was 117%, the “Mean OD450” value was found to be 1.7 OD450, the “OD450 nM of sample-1” value turned out to be 1.52 OD450 and the “OD450 nM of sample-2” value was found to be 1.88 OD450. Moreover, in test [7], the “Mean OD450” value amounted to 1.45 OD450, the “OD450 nM of sample-1” value was found to be 1.56 OD450 and the “OD450 nM of sample-2” value was 1.34 OD450. In addition, in test [4], the binding result is reported as “binds”.

B11: 18G4-chimeric (antibody, V domains shown)
VH: B10 VH
VL: B10 VL
notes: Mouse variable regions fused to a human IgG1 constant region
In test [2], B11 came in with a Kd of 0.0113 µM, a koff of 0.00515 s⁻¹ and an on-rate (kon) of 450000 M⁻¹ s⁻¹.

The values are drawn from patent US20210009693A1 (MABSPACE BIOSCIENCES SUZHOU, published 2021).
